Assays:
Mice dendritic cells = assay: DCs maturation and differentiation, activation markers by FACS; assay type: cell-based
Procedure: FIG. 1. Effect of the anti-CMKLR1 variants 1G1, 2G1, 3G1 and 4G1 chimeric antibodies on the DCs maturation and differentiation. Mice dendritic cells were incubated during maturation phase (24 h or 48 h) followed by a differentiation phase with excipient or RvE1 or anti-CMKLR1 antibodies variants (mutations on positions 1 and 2 of SEQ ID No. 8, corresponding to the VH-CDR3: 1G1 (LL), 2G1 (LI), 3G1 (IL) or 4G1 (II) or isotype controls (hIgG1 or mIgG)). Cells were then stained for FACS analysis with cell marker antibodies: A. CD80-PE; B. CD86-FITC; C. CD103-PerCPCy5.5; D. I/Ab-APC. Mean of Fluorescence was determined in each condition. E and F represent the viability of the cells measured by FACS using LIVE/DEAD® kit from Life Technologies in each condition after 24 or 48 hours of maturation respectively.
FIG. 16. Study of the myeloid cell activation markers after CMKLR1 pathway activation. Dendritic cells incubated in excipient, RvE1, 2G1 or isotype control (hIgG1) were then stained for FACS analysis with marker antibodies: A. CD80-PE. B. CD86-FITC. C. CD103-PerCPCy5.5. D. CD40-PeCy7. E. I/Ab-APC. Mean of Fluorescence was determined in each condition.
Bone marrow cells were harvested and cultured in RPMI medium supplemented with 10% FBS, glutamine and antibiotics and the dendritic cell differentiation was induced by GM-CSF at 20 ng/ml for 7 days. Then, immature dendritic cells (iDC) were collected and cultured for 24 hours with LPS (100 ng/ml) to induce the maturation from iDC to mDC. Treatments were added during differentiation and maturation at 2 μg/ml.
Dendritic cells were resuspended in PBS-FBS-EDTA and incubated with live and dead (LIVE/DEAD® Fixable Dead Cell Stains Yellow-Life Technologies) for 30 minutes on ice. Staining of CD11c-BV711, CD11b-APCCy7, I/Ab-APC, CD103-PerCPCy5.5, CCR7-V450, CD40-PeCy7, CD80-PE, CD86-FITC (all provided by BD Pharmingen) were performed.

colitis induced by TNBS = assay: acute inflammatory colitis model induced by TNBS; assay type: in vivo, mice; details: RvE1 1 μg per mouse daily, 2G1 10 μg per mouse; FIG. 3
Procedure: FIG. 3. Effect of an anti-CMKLR1 antibody on a mice acute inflammatory colitis model induced by TNBS. Mice received 200 μL of the haptenating agent TNBS at 5% in 50% ethanol on day 0 and then were injected with isotype control hIgG1 (10 μg per mouse) (x), RvE1 (1 μg per mouse) daily (●), or 2G1 antibody (10 μg per mouse) three times (□) for 5 days, or non-treated (wild type animals) (▴). Mice were sacrificed colon length was measured in each condition.
Colitis was induced in 8-10 weeks-old-C57Bl/6 male mice by intrarectal injection of 200 μL of the haptenating agent TNBS at 5% in 50% ethanol on day 0. Treatments were injected intra-peritoneally; RvE1 (1 μg per mouse) daily for three days, or 2G1 antibody (10 μg per mouse) twice for 3 days. Colitis follow-up consisting of body weight and stool score (0: normal stool; 4: blood in stool) parameters were performed daily (data not represented). When mice are euthanized, colon length representing the pathology severity was measured.

[1] = system: spontaneous colitis in IL-10KO mice; assay: IL10 KO spontaneous chronic inflammatory colitis model; assay type: in vivo; details: vs isotype control
Procedure: FIG. 4. Effect of an anti-CMKLR1 antibody on a IL10 KO mice chronic inflammatory colitis model. Mice KO for IL10 develop a spontaneous inflammatory colitis. They were treated with an Anti-CMKLR1 antibody (2G1) (□) or isotype control (hIgG1) (x) intra-peritoneally (25 μg/injection, 3 times a week). A. Animal weight loss during and after treatment. B. Animal score stool.
IL-10KO mice develop a spontaneous colitis from 20 weeks of age mostly due to the absence of regulatory T cells function through IL-10 secretion in the intestine. IL-10KO mice were followed-up three times a week from 18-week old for their weight loss and stool consistency which are clinical hallmarks of this pathology.

[2] = system: spontaneous type 1 diabetes in NOD mice; assay: type 1 diabetes NOD model; assay type: in vivo; details: 20 μg/injection i.p. three times a week for 2 weeks
Source text: FIG. 5. Effect of an anti-CMKLR1 antibody on a mice type1 non-obese diabetes model. Mice develop spontaneous diabetes. […] A. Percentage of survival, B. individual representation of blood glucose concentration in mg/dL. C. pooled representation of blood glucose concentration in mg/dL.
8 weeks-old NOD female mice were obtained from Charles River laboratory. These mice develop a spontaneous type 1 diabetes at age between 12 to 20 weeks. The diabetes initiation can be measured by the high glycaemia.

CT26 cells = assay: CT26 colon carcinoma model; assay type: in vivo, mice; details: 20 μg/injection i.p. for 3 weeks from d4; FIG. 9A-C
Procedure: (§1) FIG. 9. Effect of an anti-CMKLR1 antibody on 2 different colon carcinoma mice models. Two mice models were studied, and animals received isotype control antibody (3G8) (x) or anti-CMKLR1 (2G1) (□) at 20 μg/injection intraperitoneally for 3 weeks. A-C. Results in the CT26 colon carcinoma model comparing single treatment with p84 (A) and 2G1 (B) with combined therapy with both antibodies (C). D: Results in the MC38 colon carcinoma model.
(§2) 8-week old C57bl/6J male mice were anesthetized with 3% of isoflurane. Mice were shaved on the flank and MC38 cells (0.5·10≢cells/mouse) cell lines were injected subcutaneously with an insulinic syringe (30 Gauges) in 50 μL of PBS. Another model was used, in which 8-week old Balb/c male mice were anesthetized with 3% of isoflurane. Mice were shaved on the flank and CT26 cells (1.10≢cells/mouse) were injected subcutaneously with an insulinic syringe (30 Gauges) in 50 μL of PBS.
(§3) The agonistic anti-CMKLR1 antibody (2G1) or an anti-SIRPa antibody (p84-anti-mouse SIRPa from Merck Millipore) (SIRPa is a new checkpoint inhibitor) were injected once a week (20 μg/injection) intraperitoneally for 3 weeks starting at d4 after tumor inoculation alone or combined.

MC38 cells = assay: MC38 colon carcinoma model; assay type: in vivo, mice; details: 20 μg/injection i.p. for 3 weeks; vs isotype control; FIG. 9D
Procedure: as §1, §2, §3

AK-7 cells = assay: Mesothelioma model survival; assay type: in vivo, mice; details: 1 mg/kg three times a week for 3 weeks starting at d4; vs control antibody; FIG. 30
Procedure: AK-7 cells (3M) were injected in the pleural cavity and mice received either Iso ctrl or 2G1 three times a week for 3 weeks starting at d4 at 1 mg/kg.

B1: 2G1: parental chimeric anti-CMKLR1 antibody: heavy chain variable domain SEQ ID No. 37, light chain variable domain SEQ ID No. 49 (antibody, V domains shown)
VH: EVQLVASGGGLVQPGGSLKLSCAASGFTFSSYGMSWVRQTPDRRLELVATINRYGGSTYYPDSVKGRFTISRDNAKNTLYLQMSSLKSEDTAMYYCPRLIYYGNEGDSWGQGTTLTVSS
VL: QIVLTQSPAIMSASPGEKVTMTCSASSSVSFMHWYQQKSGTSPKRWIYDTTKLTSGVPARFSGSGSGTFYSLTISSMEAEDAATYYCQQWNSKPPLTFGPGTKLELKR
viability of cells (Mice dendritic cells; LIVE/DEAD kit, after 24 or 48 hours of maturation, FIGS. 1E and 1F): enhanced
expression of CD80, CD86, CD103, CD40 and IAb (Mice dendritic cells; compared to the excipient or isotype control, FIG. 16): strong decrease
DCs activation and/or maturation (DCs expressing CD103 and IAb) (Mice dendritic cells; maturation 24 h or 48 h, FIG. 1): inhibit DCs activation and/or maturation in a stronger manner than other synthetized antibodies
colon length (colitis induced by TNBS): the same as normal animal
percentage of weight loss ([1]; 25 μg/injection i.p., 3 times a week for 2 weeks, FIG. 4A): lost less weight
score stool ([1]; FIG. 4B): better score stool
Percentage of survival ([2]; FIG. 5A): better survival percentage
glycaemia (blood glucose concentration) ([2]; FIG. 5B-C): almost normal glycaemia
tumor development (CT26 cells): did not demonstrate a clinical effect on the tumor development
tumor growth (MC38 cells): did show an efficacy in the inhibition of the tumor growth
survival rate (AK-7 cells): higher survival rate
